Reference: US20190309059A1 (SHANGHAI PHARMAEXPLORER, published 2019)

Tests used:
[1] = biological target: his-labeled human IL-13 (immunogen A) (human) (UniProt P35225); experiment: ELISA, biotin-immunogen A; antibody at 0.021 nM
[2] = biological target: his-labeled human IL-13 (immunogen A) (human) (UniProt P35225); experiment: ELISA, biotin-immunogen A; antibody at 0.53 nM
[3] = biological target: his-labeled human IL-13 (immunogen A) (human) (UniProt P35225); experiment: FACS blocking, biotin-IL-13 on IL-13Ra2 HEK293 cells; antibody at 0.05 nM
[4] = biological target: T1, mouse IL-13 (purchased from sino biological) (mouse, UniProt P20109 19-131); experiment: ELISA, mouse IL-13; antibody at 0.004 nM
T1 chain: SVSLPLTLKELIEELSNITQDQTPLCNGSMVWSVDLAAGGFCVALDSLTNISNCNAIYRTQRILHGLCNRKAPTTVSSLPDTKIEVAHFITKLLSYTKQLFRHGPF

[5] = biological target: his-labeled human IL-13 (immunogen A) (human) (UniProt P35225); experiment: FACS blocking, biotin-IL-13 on IL-13Ra2 HEK293 cells; antibody at 1.33 nM
[6] = biological target: cynomolgus IL-13 (purchased from sino biological) (cynomolgus) (UniProt Q0PW92); experiment: ELISA, cynomolgus IL-13; antibody at 2.67 nM
cynomolgus IL-13 (purchased from sino biological) (cynomolgus), sequence (Q0PW92 entry or part of it): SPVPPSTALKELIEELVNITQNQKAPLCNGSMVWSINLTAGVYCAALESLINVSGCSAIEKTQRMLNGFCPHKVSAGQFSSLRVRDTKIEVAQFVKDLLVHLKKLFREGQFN

[7] = biological target: his-labeled human IL-13 (immunogen A) (human) (UniProt P35225); experiment: cell-based or functional assay
[8] = biological target: T1, mouse IL-13 (purchased from sino …); experiment: ELISA, mouse IL-13; antibody at 2.67 nM
[9] = biological target: his-labeled human IL-13 (immunogen A) (human) (UniProt P35225); experiment: ELISA, biotin-immunogen A; antibody at 2.67 nM
[10] = biological target: his-labeled human IL-13 (immunogen A) (human) (UniProt P35225); experiment: ELISA, biotin-immunogen A; antibody at 0.004 nM
[11] = biological target: T1, mouse IL-13 (purchased from sino …); experiment: ELISA, mouse IL-13; antibody at 0.001 nM
[12] = biological target: his-labeled human IL-13 (immunogen A) (human) (UniProt P35225); experiment: ELISA, biotin-immunogen A; antibody at 0.11 nM
[13] = biological target: cynomolgus IL-13 (purchased from sino biological) (cynomolgus) (UniProt Q0PW92); experiment: ELISA, cynomolgus IL-13; antibody at 13.33 nM
[14] = biological target: cynomolgus IL-13 (purchased from sino biological) (cynomolgus) (UniProt Q0PW92); experiment: ELISA, cynomolgus IL-13; antibody at 0.11 nM
[15] = biological target: his-labeled human IL-13 (immunogen A) (human) (UniProt P35225); experiment: FACS blocking assay: antibody titrated with biotin-labeled immunogen A (20 ng/mL); blocked partner IL-13Ra2 on HEK293 clone 1A1; Alexa 488 streptavidin
[16] = biological target: his-labeled human IL-13 (immunogen A) (human) (UniProt P35225); experiment: FACS blocking, biotin-IL-13 on IL-13Ra2 HEK293 cells; antibody at 0.002 nM
[17] = biological target: T1, mouse IL-13 (purchased from sino …); experiment: ELISA, mouse IL-13; antibody at 0.53 nM
[18] = biological target: his-labeled human IL-13 (immunogen A) (human) (UniProt P35225); experiment: ELISA, biotin-immunogen A; antibody at 13.33 nM
[19] = biological target: his-labeled human IL-13 (immunogen A) (human) (UniProt P35225); experiment: ELISA, biotin-immunogen A; antibody at 0.000 nM
[20] = biological target: his-labeled human IL-13 (immunogen A) (human) (UniProt P35225); experiment: ELISA: biotin-labeled immunogen A on streptavidin plate, antibody titrated, HRP secondary antibody, OD450
[21] = biological target: T1, mouse IL-13 (purchased from sino …); experiment: ELISA, mouse IL-13; antibody at 0.000 nM
[22] = biological target: cynomolgus IL-13 (purchased from sino biological) (cynomolgus) (UniProt Q0PW92); experiment: ELISA, cynomolgus IL-13; antibody at 0.53 nM
[23] = biological target: his-labeled human IL-13 (immunogen A) (human) (UniProt P35225); experiment: FACS blocking, biotin-IL-13 on IL-13Ra2 HEK293 cells; antibody at 0.27 nM
[24] = biological target: his-labeled human IL-13 (immunogen A) (human) (UniProt P35225); experiment: FACS blocking, biotin-IL-13 on IL-13Ra2 HEK293 cells; antibody at 6.67 nM
[25] = biological target: his-labeled human IL-13 (immunogen A) (human) (UniProt P35225); experiment: ELISA, biotin-immunogen A; antibody at 0.001 nM
[26] = biological target: T1, mouse IL-13 (purchased from sino …); experiment: ELISA, mouse IL-13; antibody at 0.021 nM
[27] = biological target: his-labeled human IL-13 (immunogen A) (human) (UniProt P35225); experiment: FACS blocking, biotin-IL-13 on IL-13Ra2 HEK293 cells; antibody at 33.33 nM
[28] = biological target: T1, mouse IL-13 (purchased from sino …); experiment: ELISA, mouse IL-13; antibody at 0.11 nM
[29] = biological target: cynomolgus IL-13 (purchased from sino biological) (cynomolgus) (UniProt Q0PW92); experiment: ELISA, cynomolgus IL-13; antibody at 0.004 nM
[30] = biological target: cynomolgus IL-13 (purchased from sino biological) (cynomolgus) (UniProt Q0PW92); experiment: ELISA, cynomolgus IL-13; antibody at 66.67 nM
[31] = biological target: his-labeled human IL-13 (immunogen A) (human) (UniProt P35225); experiment: FACS blocking, biotin-IL-13 on IL-13Ra2 HEK293 cells; antibody at 166.67 nM
[32] = biological target: his-labeled human IL-13 (immunogen A) (human) (UniProt P35225); experiment: FACS blocking, biotin-IL-13 on IL-13Ra2 HEK293 cells; antibody at 0.01 nM
[33] = biological target: his-labeled human IL-13 (immunogen A) (human) (UniProt P35225); experiment: FACS blocking assay: antibody titrated with biotin-labeled immunogen A (30 ng/mL); blocked partner IL-13Ra1/IL-4Ra on HEK293 clone 4C1; Alexa 488 streptavidin
[34] = biological target: T1, mouse IL-13 (purchased from sino …); experiment: ELISA, mouse IL-13; antibody at 13.33 nM
[35] = biological target: cynomolgus IL-13 (purchased from sino biological) (cynomolgus) (UniProt Q0PW92); experiment: ELISA, cynomolgus IL-13; antibody at 0.021 nM

B1: 35E2C3 (lead antibody, mouse hybridoma) (antibody, V domains shown)
VH: EVQLQESGPGLAKPSQTLSLTCSVTGYSITSDYWNWIRKFPGNKLEYMGYISYNGNTYYNPSLKSQISITRDTSKNQLYLQLKSATTEDTATYYCARLAKWTWYFDIWGTGTTVTVSS
VL: DIQMNQSPSSLSASLGDTITITCHASQNINVWLSWYQQKPGSLPKLLIYKASDLHTGVPSRFSGSGSGTGFTLTISSLQPEDIATYYCQQGQSYPYTFGGGTKLEIK
notes: Mouse monoclonal antibody purified from hybridoma supernatant on Protein G
Question: For B1, which OD450 nm [1] is on record?
Answer: 0.15

Question: And the OD450 nm [2]?
Answer: 0.91

Question: And the mean fluorescence intensity [3]?
Answer: 66.6

Question: What about the OD450 nm [4] of the same binder?
Answer: 0.06

Question: What about the mean fluorescence intensity [5] of the same binder?
Answer: 38.7

Question: What about the OD450 nm [6] of the same binder?
Answer: 0.52

Question: And the TARC (pg/mL), A549 cells + IL-13 5 ng/mL + TNFα; antibody at 0.001 nM [7]?
Answer: 1730 pg/mL

Question: What about the TARC (pg/mL), A549 cells + IL-13 5 ng/mL + TNFα; antibody at 0.004 nM [7] of the same binder?
Answer: 1670 pg/mL

Question: What about the TARC (pg/mL), A549 cells + IL-13 5 ng/mL + TNFα; antibody at 0.021 nM [7] of the same binder?
Answer: 1620 pg/mL

Question: What about the TARC (pg/mL), A549 cells + IL-13 5 ng/mL + TNFα; antibody at 0.11 nM [7] of the same binder?
Answer: 1550 pg/mL

Question: What about the TARC (pg/mL), A549 cells + IL-13 5 ng/mL + TNFα; antibody at 0.5 nM [7] of the same binder?
Answer: 1340 pg/mL

Question: And the TARC (pg/mL), A549 cells + IL-13 5 ng/mL + TNFα; antibody at 2.7 nM [7]?
Answer: 797 pg/mL

Question: What about the TARC (pg/mL), A549 cells + IL-13 5 ng/mL + TNFα; antibody at 13.3 nM [7] of the same binder?
Answer: 278 pg/mL

Question: What about the TARC (pg/mL), A549 cells + IL-13 5 ng/mL + TNFα; antibody at 66.7 nM [7] of the same binder?
Answer: 67 pg/mL

Question: What about the OD450 nm [8] of the same binder?
Answer: 0.08

Question: What about the OD450 nm [9] of the same binder?
Answer: 1.31

Question: And the OD450 nm [10]?
Answer: 0.07

Question: What about the OD450 nm [11] of the same binder?
Answer: 0.07

Question: And the OD450 nm [12]?
Answer: 0.41

Question: And the OD450 nm [13]?
Answer: 1.13

Question: What about the OD450 nm [14] of the same binder?
Answer: 0.11

Question: What about the IC50 (read off the curve) [15] of the same binder?
Answer: 0.3 nM

Question: What about the mean fluorescence intensity [16] of the same binder?
Answer: 76

Question: What about the OD450 nm [17] of the same binder?
Answer: 0.06

Question: And the OD450 nm [18]?
Answer: 1.39

Question: What about the OD450 nm [19] of the same binder?
Answer: 0.05

Question: What about the EC50 (read off the curve) [20] of the same binder?
Answer: 0.3 nM

Question: And the OD450 nm [21]?
Answer: 0.07

Question: What about the OD450 nm [22] of the same binder?
Answer: 0.21

Question: What about the mean fluorescence intensity [23] of the same binder?
Answer: 53.2

Question: And the mean fluorescence intensity [24]?
Answer: 35.1

Question: What about the OD450 nm [25] of the same binder?
Answer: 0.05

Question: What about the OD450 nm [26] of the same binder?
Answer: 0.06

Question: What about the mean fluorescence intensity [27] of the same binder?
Answer: 32.4

Question: What about the OD450 nm [28] of the same binder?
Answer: 0.06

Question: And the OD450 nm [29]?
Answer: 0.07

Question: What about the OD450 nm [30] of the same binder?
Answer: 1.56

Question: And the mean fluorescence intensity [31]?
Answer: 28.9

Question: And the mean fluorescence intensity [32]?
Answer: 74.3

Question: And the IC50 (read off the curve) [33]?
Answer: 0.4 nM

Question: What about the OD450 nm [34] of the same binder?
Answer: 0.09

Question: What about the OD450 nm [35] of the same binder?
Answer: 0.07
